± gives the standard deviation of the averaged measurements.
System: ATP
Assay: switch fluorescence ratio, 500 uM ATP over buffer (Cy3 cluster intensity, sum of 5 cycles each) (fold (ratio)); higher = stronger signal-on switching upon ATP binding; sequences stand for … in TCGTCGGCAGCGTCAGATGTGTATAAGAGACAGTTTTTTTTTTTTTTTTTTTTTTTTT…TC
Conditions: aptamer strand: ATP DNA aptamer (quencher-CACCTGGGGGAGTATTGCGGAGGAAGG + anchor), 100 nM annealed; ATP concentration: 500 uM
Procedure, shortened: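 Clusters carrying Cy3-labelled switching strands on a modified Illumina MiSeq flow-cell were annealed to 100 nM quencher-labelled ATP aptamer and imaged in selection buffer. They were imaged again after 15 min with 500 uM ATP at 22 °C, over five buffer/ATP cycles with NaOH stripping and re-annealing in between. For each cluster, the fluorescence ratio is the summed Cy3 intensity of the target cycles divided by that of the buffer cycles, averaged per switch-domain sequence. Clusters outside 100-1000 RFU were left out.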
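Note: ATP exposure 15 min at 22 °C before imaging.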

Sequence | switch fluorescence ratio
CTGTGTGGGA | 1.01 ± 0.013
CTGTGTTGGT | 0.992 ± 0.022
CTGTTACTGA | 0.999 ± 0.041
CTGTTACTGC | 1 ± 0.031
CTGTTAGGGA | 0.958 ± 0.03
CTGTTATCGC | 1.01 ± 0.042
CTGTTATTGT | 0.972 ± 0.024
CTGTTCGGCG | 0.979 ± 0.042
CTGTTGGAAT | 0.978 ± 0.025
CTGTTTAGGA | 1.02 ± 0.053
CTGTTTAGTG | 0.9822 ± 0.0061
CTGTTTCGGT | 0.962 ± 0.021
CTGTTTGTGA | 0.995 ± 0.011
CTTAAAGTTT | 0.983 ± 0.041
CTTAACTTGA | 1 ± 0.025
CTTAAGGGAA | 0.9915 ± 0.0065
CTTAAGGGAT | 1.0149 ± 0.00017
CTTAAGGGCC | 1.02 ± 0.012
CTTAATAGAC | 2.44 ± 1.9
CTTAATCGGC | 1.09 ± 0.11
CTTACGGGAA | 1.15 ± 0.1
CTTACGTGCC | 1 ± 0.036
CTTACTGCAT | 1.27 ± 0.068
CTTAGCTCTT | 1.03 ± 0.022
CTTAGGAGGT | 0.987 ± 0.025

Sequence | switch fluorescence ratio
CTTAGGGGGC | 1.01 ± 0.051
CTTAGGTTGT | 1.004 ± 0.0077
CTTAGTCAGC | 1.06 ± 0.099
CTTATAAATT | 0.999 ± 0.021
CTTATAGGGG | 1 ± 0.035
CTTATAGTGG | 1.06 ± 0.058
CTTATCATAT | 1.09 ± 0.1
CTTATCGTTC | 1.02 ± 0.013
CTTATGAAGC | 1.14 ± 0.012
CTTATTAATC | 1.01 ± 0.028
CTTATTCGCC | 1.05 ± 0.099
CTTATTTGAT | 0.975 ± 0.01
CTTCACATCG | 1.03 ± 0.041
CTTCGCTCGA | 1.35 ± 0.07
CTTCGGGGGT | 1.02 ± 0.019
CTTCGTACGA | 1.03 ± 0.043
CTTCTAGCTT | 0.97 ± 0.058
CTTCTCAGTA | 1.03 ± 0.048
CTTCTTAGTT | 0.976 ± 0.019
CTTCTTTGGG | 1 ± 0.024
CTTCTTTTCA | 1.1 ± 0.064
CTTGAAGGTG | 1.595 ± 0.015
CTTGACAGGT | 1.023 ± 0.0058
CTTGACGCCG | 1.09 ± 0.13
CTTGAGGGGT | 0.971 ± 0.0099

Sequence | switch fluorescence ratio
CTTGATACTC | 1.18 ± 0.032
CTTGATATTT | 0.993 ± 0.015
CTTGATTATA | 1.007 ± 0.0061
CTTGCCTGGG | 0.96 ± 0.028
CTTGCGGTTC | 1.11 ± 0.05
CTTGGATGTT | 0.987 ± 0.024
CTTGGATTCC | 1 ± 0.021
CTTGGGAGGC | 1.02 ± 0.067
CTTGGGAGGG | 0.992 ± 0.029
CTTGGGCCAC | 1 ± 0.032
CTTGGGCCGC | 1.13 ± 0.048
CTTGGGCGGA | 1.027 ± 0.008
CTTGGGGGAT | 0.979 ± 0.038
CTTGGGGGCC | 0.986 ± 0.012
CTTGGGGGGG | 0.991 ± 0.02
CTTGGGTAGG | 1.01 ± 0.035
CTTGGTCCTG | 0.9669 ± 0.007
CTTGGTGCTT | 0.974 ± 0.021
CTTGGTTTTT | 1.01 ± 0.022
CTTGTATCGG | 1 ± 0.056
CTTGTCGATT | 0.999 ± 0.04
CTTGTGAACG | 0.993 ± 0.036
CTTGTGGCTG | 1.031 ± 0.0033
CTTGTGGGGT | 0.978 ± 0.021
CTTGTTCATG | 1 ± 0.017

Sequence | switch fluorescence ratio
CTTTAAGTCT | 0.994 ± 0.039
CTTTAAGTTG | 1.03 ± 0.029
CTTTAATGCC | 0.999 ± 0.021
CTTTACCTAC | 1.327 ± 0.0078
CTTTACTTCC | 2.1 ± 0.024
CTTTACTTCG | 1.07 ± 0.027
CTTTATAGGC | 1.04 ± 0.017
CTTTATATAC | 1.35 ± 0.025
CTTTATGCTG | 1.05 ± 0.047
CTTTATTTAA | 1.02 ± 0.02
CTTTATTTGT | 1.001 ± 0.009
CTTTATTTTC | 1.03 ± 0.039
CTTTCCGTTC | 1.2 ± 0.092
CTTTCGATAG | 1.06 ± 0.049
CTTTCTTGCT | 0.975 ± 0.021
CTTTGAGC | 1 ± 0.064
CTTTGGAATA | 1.07 ± 0.041
CTTTGGATCA | 0.9836 ± 0.0055
CTTTGGGGGA | 0.983 ± 0.023
CTTTGGGGGC | 0.9593 ± 0.0087
CTTTGGTTG | 1.01 ± 0.016
CTTTGTCGAG | 1 ± 0.019
CTTTGTTTGA | 0.976 ± 0.0076
CTTTTAACGA | 1.01 ± 0.03
CTTTTAATGG | 1.03 ± 0.068

Sequence | switch fluorescence ratio
CTTTTAATTG | 0.977 ± 0.037
CTTTTACATA | 1.03 ± 0.018
CTTTTAGGGT | 0.996 ± 0.024
CTTTTAGGTA | 0.9425 ± 0.0069
CTTTTGGGGT | 0.991 ± 0.01
CTTTTTAGAG | 0.994 ± 0.015
CTTTTTAGTG | 0.982 ± 0.023
CTTTTTGGGT | 0.968 ± 0.028
CTTTTTTCGA | 1.04 ± 0.039
CTTTTTTTTA | 0.985 ± 0.021
GAAAAAAAAT | 1 ± 0.067
GAAAAAATGT | 0.967 ± 0.028
GAAAAAGTGC | 0.989 ± 0.095
GAAAAGGGGA | 1.27 ± 0.48
GAAAAGGGTG | 0.99 ± 0.051
GAAAAGTGAG | 0.975 ± 0.016
GAAAATGCAG | 0.999 ± 0.062
GAAACCAGAG | 1.39 ± 0.014
GAAACGCGTA | 0.994 ± 0.021
GAAACGTAAT | 1.19 ± 0.037
GAAACTAATG | 1.01 ± 0.013
GAAACTAGAG | 0.986 ± 0.0047
GAAACTAGTG | 0.996 ± 0.015
GAAAGACGCT | 1.15 ± 0.3
GAAAGAGAGG | 1.003 ± 0.0076

Sequence | switch fluorescence ratio
GAAAGAGATG | 1.003 ± 0.008
GAAAGAGGGG | 0.989 ± 0.021
GAAAGGCTCT | 0.9793 ± 0.0031
GAAAGGGGGT | 0.991 ± 0.027
GAAAGGGTAC | 1.56 ± 0.65
GAAAGGTATT | 0.975 ± 0.021
GAAAGGTCTA | 0.987 ± 0.057
GAAAGGTTTT | 0.9729 ± 0.0055
GAAAGTGGGA | 0.988 ± 0.025
GAAAGTTCAG | 1.002 ± 0.0098
GAAATAAGGC | 1.01 ± 0.013
GAAATAGATC | 0.953 ± 0.07
GAAATCCAGG | 1.297 ± 0.0087
GAAATCGGA | 0.993 ± 0.016
GAAATGAGGG | 0.977 ± 0.047
GAAATGCGCA | 1.08 ± 0.17
GAAATGGGAG | 0.998 ± 0.045
GAAATGGGGA | 1 ± 0.017
GAAATGGGTT | 0.957 ± 0.063
GAAATGTATT | 1.04 ± 0.063
GAAATTAGTG | 1.01 ± 0.039
GAAATTATCA | 0.977 ± 0.025
GAAATTATCG | 0.9988 ± 0.0034
GAAATTGCGG | 0.989 ± 0.024
GAAATTGTTT | 0.991 ± 0.015

Sequence | switch fluorescence ratio
GAAATTTAGA | 1.01 ± 0.028
GAAATTTTTG | 0.985 ± 0.029
GAACATGTAT | 0.987 ± 0.026
GAACATTGAG | 1.019 ± 0.0034
GAACCACGA | 1.05 ± 0.019
GAACCCCCTC | 1.21 ± 0.18
GAACCGCGTA | 1.11 ± 0.036
GAACGGCTAG | 1.02 ± 0.011
GAACGGGACA | 1.18 ± 0.065
GAACGGGGAA | 0.996 ± 0.015
GAACGGGGGA | 0.988 ± 0.035
GAACGTGGTA | 0.9936 ± 0.0038
GAACTAACAG | 1.03 ± 0.021
GAACTAACCA | 1.09 ± 0.02
GAACTAATAT | 1.01 ± 0.017
GAACTAGCGC | 1 ± 0.019
GAACTAGGGG | 1.05 ± 0.088
GAACTAGTAT | 1.01 ± 0.013
GAACTATGTA | 1.038 ± 0.01
GAACTCTTAG | 1.02 ± 0.019
GAACTGGCGC | 1.02 ± 0.096
GAACTGGGGA | 0.984 ± 0.047
GAACTGTTTT | 0.987 ± 0.018
GAACTTGGCG | 1.01 ± 0.041
GAAGAACCGG | 0.974 ± 0.022

Sequence | switch fluorescence ratio
GAAGAAGGGT | 0.99 ± 0.017
GAAGAAGGTT | 0.99516 ± 0.00083
GAAGAATTAT | 1.011 ± 0.0007
GAAGACTGGG | 1.02 ± 0.051
GAAGAGGGAG | 0.997 ± 0.026
GAAGAGGGTT | 0.972 ± 0.033
GAAGAGTTTG | 0.9776 ± 0.0069
GAAGATTGAT | 0.96 ± 0.022
GAAGCCCACG | 1.09 ± 0.019
GAAGCCTTGG | 1.009 ± 0.004
GAAGCGAGTG | 0.9785 ± 0.0056
GAAGCGTCGT | 0.983 ± 0.063
GAAGCGTTGG | 1.02 ± 0.0032
GAAGGAAAGT | 0.9689 ± 0.0057
GAAGGAATCG | 0.995 ± 0.048
GAAGGAGCGG | 0.982 ± 0.023
GAAGGATGCT | 1.03 ± 0.098
GAAGGCCCGT | 0.991 ± 0.037
GAAGGCCGGG | 1.033 ± 0.0054
GAAGGCGGGG | 0.9933 ± 0.0054
GAAGGGACGA | 0.993 ± 0.04
GAAGGGGACT | 1.04 ± 0.076
GAAGGGGGAA | 1.02 ± 0.019
GAAGGGGGCA | 0.9882 ± 0.001
GAAGGGGGGA | 0.985 ± 0.034

From the supplement of paper PMC10126150
